Source: US20110280881A1, “NOVEL ANTI-HSP90 MONOCLONAL ANTIBODY” (RIKEN, priority 2010, published 2011)

B1: 6H8: anti-HSP90 monoclonal antibody produced by hybridoma FERM BP-11222; epitope … (antibody)
VH: QVQLQQSGPELVKPGASVRISCKASGYTFTSYYIHWVKQRPGQGLEWIGWIYPGNVNTKYNEKFKGKATLTADKSSSTAYMQLSSLTSEDSAVYFCARYGNYPFAYWGQGTLVTVSAAKTTAPSVYPLAPVCGDTTGSSVTLGCLVKGYF
VL: DVVMTQTPLSLPVSLGDQASISCRSSQSLVHSNGNTYLHWYLQKPGQSPKLLIYKVSNRFSGVPDRFSGSGSGTDFTLKISRVEAEDLGVYFCSQSTHVPPTFGGGTKLEIKRADAAPTVSIFPPSSEQLTSGGASVVCFLNNFYPKDINVKWKIDGS
B2: 6H8-OVA: high molecular weight conjugate of the 6H8 antibody and maleimide-activated OVA (conjugate)
VH: B1 VH
VL: B1 VL
chain: GSIGAASMEFCFDVFKELKVHHANENIFYCPIAIMSALAMVYLGAKDSTRTQINKVVRFDKLPGFGDSIEAQCGTSVNVHSSLRDILNQITKPNDVYSFSLASRLYAEERYPILPEYLQCVKELYRGGLEPINFQTAADQARELINSWVESQTNGIIRNVLQPSSVDSQTAMVLVNAIVFKGLWEKAFKDEDTQAMPFRVTEQESKPVQMMYQIGLFRVASMASEKMKILELPFASGTMSMLVLLPDEVSGLEQLESIINFEKLTEWTSSNVMEERKIKVYLPRMKMEEKYNLTSVLMAMGITDVFSSSANLSGISSAESLKISQAVHAAHAEINEAGREVVGSAEAGVDAASVSEEFRADHPFLFCIKHIATNAVLFFGRCVSP

What was measured:
[1] = tested on: cell surface HSP90α and β; test: Immunoprecipitation of cell surface HSP90 from DC2.4 living cells; assay type: binding; conditions: DC2.4 living cells incubated with antibody on ice
Procedure: Mammalian HSP90 occurs in two isoforms: HSP90α and β. The following experiment was performed to determine whether not only HSP90α but also HSP90β is recognized by the antibody of the present invention. First, DC2.4 living cells were incubated along with an antibody on ice using 6H8, 2A6 or normal mouse IgG as a negative control. After being thoroughly washed to remove the unreacted antibody, the cells were lysed; the lysate was centrifuged at 10,000×g, and the resulting supernatant was incubated along with Protein G-Sepharose. The bound material was subjected to SDS-PAGE, after which blotting was performed using an anti-HSP90α antibody (SPS-771, Assay designs), an anti-HSP90β antibody (PB-118-P1, Neomarkers), or an antibody that recognizes both HSP90α and β (6B1C4, another antibody obtained in Example 1).

[2] = tested on: MO5 (OVA-expressing melanoma); test: Pulmonary metastasis model with MO5 (OVA-expressing melanoma); assay type: in vivo, mouse; conditions: MO5 i.v.; 4 days later 6H8-OVA (10 mg) i.v.; counted 15 days later
Procedure: The pulmonary metastasis suppressing effect of 6H8-OVA was examined in a pulmonary metastasis model that is generated by transvenously administering MO5 (OVA-expressing melanoma) to a mouse. MO5 was administered to the mouse from a vein; 4 days later, PBS or 6H8-OVA (10 mg) was administered from a vein. 15 days later, pulmonary metastatic spots were counted.

specific CTL = test: Specific CTL induction in immunized mice, comparison with IFA+OVA257-264; assay type: in vivo, mouse; conditions: immunized twice at 1-week interval, tail vein; tetramer-positive cells in CD8-positive cells
Procedure: Mice were immunized twice with 6H8-OVA or IFA+OVA at a 1-week interval. For 6H8-OVA, the specified amount of 6H8-OVA was diluted in 200 μl of PBS and administered from the tail vein. For IFA+OVA, an emulsion was prepared so that the specified amount of OVA257-264 peptide would be contained in the 200 μl dose, and subcutaneously administered. The emulsion was prepared by mixing the required amount of the OVA257-264 peptide in PBS in advance, and adding an equal amount of IFA (SIGMA: F5506) thereto.
Seven days after final immunization, the spleen of each recipient mouse was collected and finely loosened using tweezers, and splenocytes were recovered. A pellet of splenocytes was prepared in a 15-ml tube, and 2 ml of an FCS-free complete RPMI containing the OVA257-264 peptide (final concentration 10^−5 M) was added thereto. With the lid of the tube loosened, the tube was allowed to stand in an incubator at 37° C. with 5% CO2 for 1 hour. Subsequently, the culture broth RPMI (containing 10% FCS) was added to adjust the total volume to 20 ml, and 2 ml each was put into a 24-well plate.
After 5 days of cultivation, the cells were recovered and stained using the H-2K^b+OVA257-264-specific tetramer (MBL: TS-5001-1) and FITC-anti-mouse CD8a (eBioscience: 11-0081), and induction of specific CTL was confirmed using FACS Canto. […]

[3] = tested on: cytotoxic T cells specific for OVA257-264 epitope; test: Induction of OVA257-264-specific cytotoxic T cells by immunization (tetramer staining, 51Cr release); assay type: in vivo; conditions: 3 μg per mouse
Procedure: The mice were immunized twice at a 1-week interval. One week after second immunization, splenocytes were cultured in the presence of the OVA257-264 peptide for 5 days. The resulting cytotoxic T cells were monitored by tetramer staining [T cells were stained using T-Select H-2K^b OVA Tetramer-[…]-PE (MBL, TS5001-1, amount used=1 test/tube) at room temperature for 30 minutes], and standard ^51Cr release assay [2×10^6 each of mouse tumor cells E.G7, supplied by Dr. Michael Bevan at the University of Washington, U.S.A. (see Cell vol. 54:777-785, 1988), and EL4 (purchased from ATCC) were labeled with 50 microcuries of sodium ^51Cr, and used as the target cells; the cytotoxic T cells were added to 5×10^3 target cells as indicated in FIG. 8E; after cultivation for 4 hours, free ^51Cr in the supernatant was measured to calculate the cytotoxic activity; the EL4 cells with or without pulsing with the peptide OVA257-264 were prepared].

Molecule | recognition of cell surface HSP90α and β on living cells (immunoprecipitation) [1] | pulmonary metastatic spots [2] | CTL induction compared with IFA+OVA (specific CTL) | tetramer-positive cells after immunization ([3]; twice at 1-week interval, splenocytes cultured with OVA257-264 5 days) | cytotoxicity in 51Cr release assay ([3]; twice, target cells E.G7, EL4 with or without OVA257-264)
B1 | recognized |  |  |  | 
B2 |  | almost no metastatic spots | as effective as, or more effective than, IFA+OVA | produced tetramer-positive cells | cytotoxicity to OVA257-264 epitope was also observed
